Assay results published in paper PMC3239189 (Nucleic Acids Research, 2011).

T1: LHK-Exo (Laribacter hongkongensis HLHK9, UniProt C1D7P6 1-203)
T1 sequence: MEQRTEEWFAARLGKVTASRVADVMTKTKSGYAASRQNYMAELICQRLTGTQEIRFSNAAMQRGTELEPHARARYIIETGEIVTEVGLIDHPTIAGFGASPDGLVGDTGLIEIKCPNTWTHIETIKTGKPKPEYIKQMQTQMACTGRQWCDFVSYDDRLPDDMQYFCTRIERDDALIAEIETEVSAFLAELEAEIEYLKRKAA

B1: LHK-Exo (alkaline exonuclease from Laribacter hongkongensis HLHK9, LHK_01497) (enzyme, UniProt C1D7P6 1-203, looked up)
chain: MEQRTEEWFAARLGKVTASRVADVMTKTKSGYAASRQNYMAELICQRLTGTQEIRFSNAAMQRGTELEPHARARYIIETGEIVTEVGLIDHPTIAGFGASPDGLVGDTGLIEIKCPNTWTHIETIKTGKPKPEYIKQMQTQMACTGRQWCDFVSYDDRLPDDMQYFCTRIERDDALIAEIETEVSAFLAELEAEIEYLKRKAA
B2: 5'-PO4-(dT)5 (ssDNA)
DNA: TTTTT
modifications: 5'-phosphate

Key:
[1] = target: the molecule itself; assay: AUC
[2] = target: T1, LHK-Exo; assay: X-ray crystallography

Binder | stoichiometry N [1] | binding result [2]
B1 | 3 | –
B2 | – | binds
